The values that follow come from a protein production outcome set (Wang et al. 2014).

The series in a line: label from the status in PepcDB records.
With “MKIEERKQYVKIEVQEGDTLWELADRIKGGKTADKHKFIEWVADKNNLPTSVIKPGDVLILPVAKQHSDQYQLAVVELEHHHHHH”, the protein production result is given as “not failed”.

Turning to “MKIEEVRFGLVKIDGKEFDHDIVIYPSGRIERRMKEISKKKHGTSHKLDPEELEKYLVEDFDVLLVGTGIYGMLSLLPESKKLVEDKEVIEKPTKEALKLLEELWGKKRILAIIHVTC”, the protein production entry is given as “not failed”.

Consider “MKIELLLLFLVFAWDGYFFLRYIIGLTRKYRTIQWNPTVSVIIPAYNEEENIESAIKAALSQDYPVSEVIVVDDGSEDKTYERALRMAQEDTRVKVIRIPHGGKARALNEGIKVARGEIIVTTDADSYMAKDAVRRLVERFYSPDIVGVGGQIRVVVESFLTLVQDIEHLRIAMYRRAKELEDLSLAPGPLSAFRREALDQIGGIAESIVEDYATTKLLKKVGKVVYAPKAKLFTRMPITLKELWRQRKRWFIGDLNHLEPKDYAILMLSDFIAFLDVILPLLFIVRGEFLLLGAFFGFEILTMLPPIIFEGGSIIEALSFPFILIFLAMFYLGIHIYGYLTKLNAKIFK”, for which the protein production entry is “failed”.

On to “MKIESAQIIELPKILDKRGNLSIIEEFKNIPFKIERTYWIYDVPGGESRGGHAYRENEEFIVALSGSFDVVLDDGNNKKIFSLNRSYYGLYVPKGLWREMNNFSTNSLALILSSTVYEEKDYIRDYNEFLKMKRKLEHHHHHH”, for which the protein production result was “failed”.

Turning to “MKIESLDLPDEIKRFYENSGILELYPPQAEAVEKGLLEGKNLLAAIPTASGKTLLAELAMLKSVLNGGKALYIVPLRALASEKFRRFQEFSVLGMRVGISTGDYDRRDEGLGINDIIVATSEKTDSLLRNETAWMQEISVVVADEVHLIDSPDRGPTLEITLSKLRRMNPSCQVLALSATVGNADELAAWLDAELVLSEWRPTDLMEGVFYNGIFYCKDKEKPVGQPTKDEAVNLVLDTIKEGGQCLVFESSRKNCMGFAKKAVSAVKKTLSNEDRETLAGIADEIIENSETDVSSVLATCVRSGTAFHHAGLTTPLRELVENGFREGRIKIISSTPTLAAGLNLPARRVIIRSYRRYSSDSGMQPIPVLEYKQMAGRAGRPRLDPYGEAVLLAKSYEEFVFLFEKYIEAGAEDIWSKLGTENALRTHILSTISNGFARTREELMDFLEATFFAFQYSNFGLSAVVDECLDFLRREGMLEKDPDALVSTVFGKLVSRLYIDPLSAALIAKGLREAGTLTELTLLHLICSTPDMRLMYMRSQDYQEVNDYVMAHAGEFSKVPNPFNIAEYEWFLGEVKTSLLLMDWIHEKPENEICLKFGIGEGDIHATADIAEWIMHVTAQLAGLLDLKGAKEASELEKRIRYGAAPELMDLLDIRSVGRVRARKLYEAGFKSTAELAAASPEHIAVLVGPKITERIFKQIGRREAVSEFSDIEPLEKGSSDGQRTISDY”, the protein production result is listed as “failed”.

As for “MKIFIVGSTGRVGKSLLKSLSTTDYQIYAGARKVEQVPQYNNVKAVHFDVDWTPEEMAKQLHGIDAIINVSGSGGKSLLKVDLYGAVKLMQAAEKAEVKRFILLSTIFSLQPEKWIGAGFDALKDYYIAKHFADLYLTKETNLDYTIIQPGALTEEEATGLIDINDEVSASNTIGDVADTIKELVMTDHSIGKVISMHNGKTAIKEALESLLEHHHHHH”, the protein production result was “not failed”.

For “MKIGIIGAGFVARAIAKLALQNGHQVMLSNSRDPQSLFSLRPMIGCDIGTATQAALFGDIIVIAVPFTAIDKLPEQALQGKSVIDAVNYYTERDGKVAALDTRSTTTSELLAGYLPGAKITKAFNAITMTQLERDGLPAGSAHRRALPLAGDHEQEKTIVAELYDAFGFDVVDAGKLSEGWRFERNMPSYCVRMTKAELTTALALSSRLEHHHHHH”, the protein production result was “not failed”.

For “MKIGIIGVGKMASAIIKGLKQTPHELIISGSSLERSKEIAEQLALPYAMSHQDLIDQVDLVILGIKPQLFETVLKPLHFKQPIISMAAGISLQRLATFVGQDLPLLRIMPNMNAQILQSSTALTGNALVSQELQARVRDLTDSFGSTFDISEKDFDTFTALAGSSPAYIYLFIEALAKAGVKNGIPKAKALEIVTQTVLASASNLKTSSQSPHDFIDAICSPGGTTIAGLMELERLGLTATVSSAIDKTIDKAKSL”, the protein production result was “not failed”.

Consider “MKIGVLGLQGAVREHVRAIEACGAEAVIVKKSEQLEGLDGLVLPGGESTTMRRLIDRYGLMEPLKQFAAAGKPMFGTCAGLILLAKRIVGYDEPHLGLMDITVERNSFGRQRESFEAELSIKGVGDGFVGVFIRAPHIVEAGDGVDVLATYNDRIVAARQGQFLGCSFHPELTDDHRLMQYFLNMVKEAKMASSLK”, for which the protein production result is “not failed”.

For the sequence “MKIIELPIEFEFNGQKQCIYPSLIILHNELTLVDTGYPSFLPLIENAILKHGYEMKNLKNIIITHYDDDHIGAVYDFKVKYPNINVIASEIESNYINGDIKSERLVQAEEMLERMPNEEKEFGKWFIQQLKNIKHISVDEKVHDGQMILNNECQVVATPGHTSGHISLYFPNLDCVITGDAAVQENRELVIANPNFCLDIEKAKQSLNRIKSFKAAQYYCYHGGKLTV”, the protein production result is “failed”.

Consider “MKIIRTRQRPFMVIVDVVLTVLAWVGLLYLLVRGLIPLLDSHEGPRIEAGMLDALTTLQFYAWVAVLNAVLLISWARYRQRRNKSYPPRLPAPVVDDKRLSETFKLNDATFAQMRQPGTMIVHNDEEGGISHVTTQFYRILPEDQQHPPLRVEPPPRVIHLRSEGDEGKKTGED”, for which the protein production result is “failed”.

Turning to “MKIKACIFDMDGTLVNSIMDIAFSMNSALSNLGYSKIELSKFNALVGRGFNKFVIDTLKLLSLEHDNPNLQEKLYKEFVKEYNKNLSFQTKPYENIKPLLETMNKLNIPIGILSNKNHEELINLVKNIFGNILFFEIRGYSKNFPPKPDPENALDMILELNAQKEEIAYIGDSDVDMLTALNAGFMPIGVSWGFRSVQELKESGAKHIIHNPLELLDLIK”, the protein production result is “failed”.

For the sequence “MKIKAVGAYSAKQPLEPMDITRREPGPNDVKIEIAYCGVCHSDLHQVRSEWAGTVYPCVPGHEIVGRVVAVGDQVEKYAPGDLVGVGCIVDSCKHCEECEDGLENYCDHMTGTYNSPTPDEPGHTLGGYSQQIVVHERYVLRIRHPQEQLAAVAPLLCAGITTYSPLRHWQAGPGKKVGVVGIGGLGHMGIKLAHAMGAHVVAFTTSEAKREAAKALGADEVVNSRNADEMAAHLKSFDFILNTVAAPHNLDDFTTLLKRDGTMTLVGAPATPHKSPEVFNLIMKRRAIAGSMIGGIPETQEMLDFCAEHGIVADIEMIRADQINEAYERMLRGDVKYRFVIDNRTLTD”, the protein production entry is given as “not failed”.

In the case of “MKIKTSYLIYAVIATVFAGLSMVTDIFEKGNFEAIFSNLGMIIGLSILAYILITMAKSFIDLVINELKN”, the protein production result was “failed”.

For “MKILFIKLSALGDVLASTPLFASTKAEHPDWFVGHVVARPYADATRNNAHVDAQFVVDSPLSKGLAEKIGVAVGIWRYVLRERYDIAVVLHRSFVLQLICRLALVKKVVGYEGPFSFILNHSIPFSMRGNRSNLELRLLKSAGIIRDEKKKLRFDIDFGNVDPSRLRALPDAFIAVNAGGGNADAHAANKLWPAEHYGALIKQLPLPAVMLGHGAADERIRDRVAATGATFVDLIGKTNLDETAVVLRRSSLYVGNDSALLYLAASLGVTTIGIYGPTDPAAFSPLGANNLWLSGKTSCAPCYSSFDGIGGRMYTCADNICMKAVTVESVSERIHAALHQDQNLQVAGPDVVGSGQGGAASEAGDRARAHARAGHQAVGDGGFAVPVSRRPPVGARVSGRDD”, the protein production entry was “failed”.

With “MKILKKIFQVIVKIINHCVPVDSRSLYFIPHPNCRTDKYDIINYSSDNVLVLLNYLLKKDSAEYYKIYVEIYDSSRISEYQEYIYGINPNIRCTFLCACVGRFFFNKVSFKDMLYAFFCFCRASKCFTATFYYDFSFKKRSQQIICLGYYTPFKDDYHMGDHSYDKFRNTTCNSFDYSIATSCLSARIISIDCGISYDKFKVLGFPRNDLLISKNNCNVIKREISKFAGYDVTKYIVYTPTFRDYETVTEGNLRSILGYVDCDLLKLSKILLKFNAALILKLHPLQNKTVLKKDLPKGILVFEQTYKYGLYDLLSFSDGMITDYTSTYFDFLLVNKPVIFNFYDIEEYRRVRGFSFEPIEFFCAGDIVYNYNELIDAVMGLLAGKDIHAEHRRHISLLMNQFQDDNSTKRICDIFLNEILEHHHHHH”, the protein production entry is on record as “failed”.
